The text below walks through data of article PMC9287160.

This test concerns the target αMβ2 expressed on K562 cells (human) (UniProt P11215). The test can be described thus: flow cytometry on cells; αMβ2/K562 cells, 45 min with 10 μg/ml Alexa Fluor 488-iC3b and 0, 1, 5 or 10 μg/ml hCD11bNb1; 1 mM Ca2+ and 1 mM Mg2+, with or without 1 mM Mn2+.

For the substance “Alexa Fluor 488-conjugated iC3b (from UniProt P01024 23-667; P01024 1321-1663) (ligand)”, the fold increase of iC3b* binding in the presence of hCD11bNb1 against none came to 2 fold.
